In the supplement of paper PMC12338614:
± gives the uncertainty stated by the source.

B1: library; numbered along this chain (parent)
chain: MEVVDPQQLGMFTEGELMSVGMDTFIHRIDSTEVIYQPRRKRAKLIGKYLMGDLLGEGSYGKVKEVLDSETLCRRAVKILKKKKLRRIPNGEANVKKEIQLLRRLRHKNVIQLVDVLYNEEKQKMYMVMEYCVCGMQEMLDSVPEKRFPVCQAHGYFCQLIDGLEYLHSQGIVHKDIKPGNLLLTTGGTLKISDLGVAEALHPFAADDTCRTSQGSPAFQPPEIANGLDTFSGFKVDIWSAGVTLYNITTGLYPFEGDNIYKLFENIGKGSYAIPGDCGPPLSDLLKGMLEYEPAKRFSIRQIRQHSWFRKKHPPAEAPVPIPPSPDTKDRWRSMTVVPYLEDLHGADEDEDLFDIEDDIIYTQDFTVPGQVPEEEASHNGQRRGLPKAVCMNGTEAAQLSTKSRAEGRAPNPARKACSASSKIRRLSACKQQ

Variants of: B1
Assay: STK11 functional score (HeLa growth suppression), rescaled enrichment; synonymous median = 1, nonsense median = 0 (normalised score)
Conditions: with HeLa; variant type: missense
Method: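 Deep mutational scan (TileSeq/POPCode codon randomisation) of full-length codon-optimised STK11 cDNA integrated at a Bxb1 landing pad (AAVS1) in HeLa cells. Restoring functional STK11 suppresses HeLa proliferation. Variant frequencies were measured by NGS before and after about two weeks of growth. The error-corrected enrichment log-ratio was rescaled so that synonymous median = 1 and nonsense median = 0, scores above 1 were compressed, and codon-level and three biological replicate scores were combined; error is the bootstrapped standard error. Scale: synonymous median = 1, nonsense median = 0; below 0.5 = damaging.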

Going from MEVVDPQQLGMFTEGELMSVGMDTFIHRIDSTEVIYQPRRKRAKLIGKYLMGDLLGEGSYGKVKEVLDSETLCRRAVKILKKKKLRRIPNGEANVKKEIQLLRRLRHKNVIQLVDVLYNEEKQKMYMVMEYCVCGMQEMLDSVPEKRFPVCQAHGYFCQLIDGLEYLHSQGIVHKDIKPGNLLLTTGGTLKISDLGVAEALHPFAADDTCRTSQGSPAFQPPEIANGLDTFSGFKVDIWSAGVTLYNITTGLYPFEGDNIYKLFENIGKGSYAIPGDCGPPLSDLLKGMLEYEPAKRFSIRQIRQHSWFRKKHPPAEAPVPIPPSPDTKDRWRSMTCVPYLEDLHGADEDEDLFDIEDDIIYTQDFTVPGQVPEEEASHNGQRRGLPKAVCMNGTEAAQLSTKSRAEGRAPNPARKACSASSKIRRLSACKQQ [V337C] to MEVVDPQQLGMFTEGELMSVGMDTFIHRIDSTEVIYQPRRKRAKLIGKYLMGDLLGEGSYGKVKEVLDSETLCRRAVKILKKKKLRRIPNGEANVKKEIQLLRRLRHKNVIQLVDVLYNEEKQKMYMVMEYCVCGMQEMLDSVPEKRFPVCQAHGYFCQLIDGLEYLHSQGIVHKDIKPGNLLLTTGGTLKISDLGVAEALHPFAADDTCRTSQGSPAFQPPEIANGLDTFSGFKVDIWSAGVTLYNITTGLYPFEGDNIYKLFENIGKGSYAIPGDCGPPLSDLLKGMLEYEPAKRFSIRQIRLHSWFRKKHPPAEAPVPIPPSPDTKDRWRSMTVVPYLEDLHGADEDEDLFDIEDDIIYTQDFTVPGQVPEEEASHNGQRRGLPKAVCMNGTEAAQLSTKSRAEGRAPNPARKACSASSKIRRLSACKQQ [Q305L], the STK11 functional score rises from 1.15 ± 0.19 to 1.6 ± 0.16.

Going from MEVVDPQQLGMFTEGELMSVGMDTFIHRIDSTEVIYQPRRKRAKLIGKYLMGDLLGEGSYGKVKEVLDSETLCRRAVKILKKKKLRRIPNGEANVKKEIQLLRRLRHKNVIQLVDVLYNEEKQKMYMVMEYCVCGMQEMLDSVPEKRFPVCQAHGYFCQLIDGLEYLHSQGIVHKDIKPGNLLLTTGGTLKISDLGVAEALHPFAADDTCRTCQGSPAFQPPEIANGLDTFSGFKVDIWSAGVTLYNITTGLYPFEGDNIYKLFENIGKGSYAIPGDCGPPLSDLLKGMLEYEPAKRFSIRQIRQHSWFRKKHPPAEAPVPIPPSPDTKDRWRSMTVVPYLEDLHGADEDEDLFDIEDDIIYTQDFTVPGQVPEEEASHNGQRRGLPKAVCMNGTEAAQLSTKSRAEGRAPNPARKACSASSKIRRLSACKQQ [S213C] to MEVVDPQQLGMFTEPELMSVGMDTFIHRIDSTEVIYQPRRKRAKLIGKYLMGDLLGEGSYGKVKEVLDSETLCRRAVKILKKKKLRRIPNGEANVKKEIQLLRRLRHKNVIQLVDVLYNEEKQKMYMVMEYCVCGMQEMLDSVPEKRFPVCQAHGYFCQLIDGLEYLHSQGIVHKDIKPGNLLLTTGGTLKISDLGVAEALHPFAADDTCRTSQGSPAFQPPEIANGLDTFSGFKVDIWSAGVTLYNITTGLYPFEGDNIYKLFENIGKGSYAIPGDCGPPLSDLLKGMLEYEPAKRFSIRQIRQHSWFRKKHPPAEAPVPIPPSPDTKDRWRSMTVVPYLEDLHGADEDEDLFDIEDDIIYTQDFTVPGQVPEEEASHNGQRRGLPKAVCMNGTEAAQLSTKSRAEGRAPNPARKACSASSKIRRLSACKQQ [G15P], the STK11 functional score rises from 0.758 ± 0.11 to 1.66 ± 0.28.

MEVVDPQQLGMFTEGELMSVGMDTFIHRIDSTEVIYQPRRKRAKLIGKYLMGDLLGEGSYGKVKEVLDSETLCRRAVKILKKKKLRRIPNGEANVKKEIQLLRRLRHKNVIQLVDVLYNEEKQKMYMVMEYCVCGMQEMLDSVPEKRFPVCQAHGYFCQLIDGLEYLHSQGIVHKDIKPGNLLLTTGGTLKISDLGVAEALHPFAADDTCRTSQGSPAFQPPEIANGLDTFSGFKVDIWSAGVTLYNITTGLYPFEGDNIYKLFENIGKGSYAIPGDCGPPLSDLLKGMLEYEPAKRFSIRQIRQHSWFRKKHPPAEAPVPIPPSPDTKDRWRSMTVVPYLEDLHGADEDEDLFDIEDDIIYTQDFTVPGQQPEEEASHNGQRRGLPKAVCMNGTEAAQLSTKSRAEGRAPNPARKACSASSKIRRLSACKQQ [V372Q] and MEVVDPQQLGMFTEGELMSVGMDTFIHRIDSTEVIYQPRRKRAKLIGKYLMGDLLGEGSYGKVKEVLDSETLCRRAVKILKKKKLRRIPNGEANVKKEIQLLRRLRHKNVIQLVDVLYNEEKQKMYMVMEYCVCGMQEMLDSVPEKRFPVCQAHGYFCQLIDGLEYLHSQGIVHKDIKPGNLLLTTGGTLKISDLGVAEALHPFAADDTCRTSQGSPAFQPPEIANGLDTFSGFKVDIWSAGVTLYNITTGLYPFEGDNIYKLFENIGGGSYAIPGDCGPPLSDLLKGMLEYEPAKRFSIRQIRQHSWFRKKHPPAEAPVPIPPSPDTKDRWRSMTVVPYLEDLHGADEDEDLFDIEDDIIYTQDFTVPGQVPEEEASHNGQRRGLPKAVCMNGTEAAQLSTKSRAEGRAPNPARKACSASSKIRRLSACKQQ [K269G] are within error of each other in STK11 functional score: 1.49 ± 0.16 for the first, 1.46 ± 0.45 for the second.

Variant MEVVDPQQLGMFTEGELMSVGMDTFIHRIDSTEVIYQPRRKRAKLIGKYLMGDLLGEGSYGKVKEVLDSETLCRRAVKILKKKKLRRIPNGEANVKKEIQLLRRLRHKNVIQLVDVLYNEEKQKMYMVMEYCVCGMQEMLDSVPEKRFPVCQAHGYFCQLIDGLEYLHSQGIVHKDIKPGNLLLTTGGTLKISDLGVAEALHPFAADDTCRTSQGSPAFQPPEIANGLDTFSGFKVDIWSAGVTLYNITTGLYPFEGDNIYKLFENIGKGSYAIPGDCGPPLSDLLKGMLEYEPAKRFSIRQIRQHSWFRKKHPPAEAPVPIPPSPDTKDRWRSMTVVPYLEDEHGADEDEDLFDIEDDIIYTQDFTVPGQVPEEEASHNGQRRGLPKAVCMNGTEAAQLSTKSRAEGRAPNPARKACSASSKIRRLSACKQQ [L344E] has an STK11 functional score of 1.28 ± 0.53.
